Values joined by “and” are separate entries in the source; they are usually repeats but may differ in a detail not shown here. Identical values can stand only once.
T1: FVIIa (UniProt P08709 61-466)
T1 construct: also called factor VIIa
T1 sequence (looked up): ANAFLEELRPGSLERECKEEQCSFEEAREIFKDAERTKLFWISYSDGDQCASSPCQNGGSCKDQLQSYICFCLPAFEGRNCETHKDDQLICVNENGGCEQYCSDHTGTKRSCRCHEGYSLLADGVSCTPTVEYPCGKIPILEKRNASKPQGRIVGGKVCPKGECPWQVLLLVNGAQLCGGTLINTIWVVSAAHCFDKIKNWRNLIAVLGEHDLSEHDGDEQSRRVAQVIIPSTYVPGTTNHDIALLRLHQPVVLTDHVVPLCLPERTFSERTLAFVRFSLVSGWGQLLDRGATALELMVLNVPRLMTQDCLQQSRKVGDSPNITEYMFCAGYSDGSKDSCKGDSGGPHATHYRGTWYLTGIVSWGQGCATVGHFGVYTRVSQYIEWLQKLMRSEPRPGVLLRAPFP


Legend:
[1] = molecular target: T2, human activated protein C (APC) (human, UniProt P04070 43-461); assay: cell-based or functional assay
[2] = molecular target: T2, human activated protein C (APC); assay: BLI, VHH captured via anti-V5, APC in solution
FXIa = molecular target: T3, FXIa (UniProt P03951 19-625); assay: ELISA, FXIa coated at 10 µg/mL, HRP-anti-V5, n=3
T3 construct: also called factor XIa

[3] = molecular target: T2, human activated protein C (APC); assay: BLI (Octet): nanobody captured on anti-V5 sensor, dipped in 500 nM APC; buffer sensor reads 0.06
[4] = molecular target: T2, human activated protein C (APC); assay: cell-based or functional assay; remark: listed apart in the source
[5] = molecular target: T4, human protein C (PC) zymogen (human, UniProt P04070 43-197; P04070 200-461); assay: ELISA screen, PC-coated wells, OD450, n=2 [Continued]
T4 construct: Bought

FVIIa = molecular target: T1, FVIIa; assay: ELISA, FVIIa coated at 10 µg/mL, HRP-anti-V5, n=3
[6] = molecular target: T4, human protein C (PC) zymogen; assay: ELISA
[7] = molecular target: T4, human protein C (PC) zymogen; assay: ELISA screen, PC-coated wells, OD450, n=2 [Continued]; remark: listed apart in the source
[8] = molecular target: T4, human protein C (PC) zymogen; assay: ELISA screen, PC-coated wells, OD450, n=2
[9] = molecular target: T2, human activated protein C (APC); assay: BLI (Octet), nanobody captured, 5 APC concentrations, 1:1 model; written in place of a bar

T2 sequence (P04070 other isoform, or with tags, fused parts or gaps): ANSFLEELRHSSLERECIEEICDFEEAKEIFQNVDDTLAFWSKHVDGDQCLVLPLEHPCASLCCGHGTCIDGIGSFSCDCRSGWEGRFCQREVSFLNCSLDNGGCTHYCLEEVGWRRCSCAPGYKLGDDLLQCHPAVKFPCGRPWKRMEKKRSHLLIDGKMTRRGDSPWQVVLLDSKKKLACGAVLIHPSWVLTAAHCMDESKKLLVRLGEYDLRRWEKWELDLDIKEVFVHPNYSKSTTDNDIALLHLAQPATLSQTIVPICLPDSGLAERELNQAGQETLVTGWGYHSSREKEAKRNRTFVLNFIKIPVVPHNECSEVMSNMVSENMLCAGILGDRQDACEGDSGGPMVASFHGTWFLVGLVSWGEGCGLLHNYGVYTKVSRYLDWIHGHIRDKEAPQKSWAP
T3 sequence (P03951 19-625 limits assumed): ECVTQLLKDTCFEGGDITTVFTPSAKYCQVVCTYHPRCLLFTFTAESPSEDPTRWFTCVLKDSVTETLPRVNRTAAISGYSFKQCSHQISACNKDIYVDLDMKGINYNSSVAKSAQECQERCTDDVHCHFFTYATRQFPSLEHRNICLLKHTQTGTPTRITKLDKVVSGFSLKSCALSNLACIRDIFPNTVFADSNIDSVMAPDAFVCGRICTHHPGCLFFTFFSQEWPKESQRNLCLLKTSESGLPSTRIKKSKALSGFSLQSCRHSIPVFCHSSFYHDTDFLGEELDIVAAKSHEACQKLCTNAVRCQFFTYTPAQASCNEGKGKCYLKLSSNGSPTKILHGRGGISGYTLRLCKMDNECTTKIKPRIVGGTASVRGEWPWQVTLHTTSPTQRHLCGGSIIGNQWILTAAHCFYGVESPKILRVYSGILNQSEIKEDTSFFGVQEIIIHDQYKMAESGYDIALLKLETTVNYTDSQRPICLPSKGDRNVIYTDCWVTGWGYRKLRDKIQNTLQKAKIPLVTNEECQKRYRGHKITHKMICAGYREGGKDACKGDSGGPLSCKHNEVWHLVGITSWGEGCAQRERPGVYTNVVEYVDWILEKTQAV
T4 sequence (P04070 43-197, chain 1 of 2): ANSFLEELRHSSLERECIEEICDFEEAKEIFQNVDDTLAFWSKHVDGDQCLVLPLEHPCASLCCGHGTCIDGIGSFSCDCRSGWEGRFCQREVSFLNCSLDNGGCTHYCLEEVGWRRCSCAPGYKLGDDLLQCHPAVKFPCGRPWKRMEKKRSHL
T4 sequence (P04070 200-461, chain 2 of 2): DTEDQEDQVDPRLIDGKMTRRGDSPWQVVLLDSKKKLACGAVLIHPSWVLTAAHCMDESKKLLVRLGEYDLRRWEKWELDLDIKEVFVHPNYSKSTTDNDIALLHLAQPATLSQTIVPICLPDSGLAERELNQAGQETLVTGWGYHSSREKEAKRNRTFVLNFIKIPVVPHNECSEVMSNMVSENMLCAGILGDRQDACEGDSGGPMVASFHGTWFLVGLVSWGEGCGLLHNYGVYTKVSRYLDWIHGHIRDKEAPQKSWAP

Binder | APC plasma T1/2 (min; mean) [1] [min] | Kd [2] [nM] | koff [2] [s⁻¹] | kon [2] [M⁻¹ s⁻¹] | binding result (FXIa) | APC binding (nm) [3] [nm] | APC-mediated histone H3 cleavage, 500 nM nanobody [4] [% residual activity] | binding result [5] | binding result (FVIIa) | binding result [6] | binding result [7] | Protac-APTT clotting time, 300 nM nanobody [4] [%] | binding result [8] | R46/R41 cleavage ratio of PAR1 by APC [4] | Kd [9] [nM]
LP13 (SR16983-R3-P3-G08) (VHH, not shown: small tags and cut ends, Llama VHH purified from E. coli periplasm) VHH: QLQLVESGGGLVQAGGSLRLSCVASGTTFTIEDIGWHRQAPGKQLELVAVSRGGGNADYSDSVKGRFTISRDNAKTTVYLQMSSLKPEDTAVYYCIAKTKATTKWGRGIQVTVSS | 67.1 | 1.2 | 0.00041 | 350000 | no binding (tested: 2 µg/mL) | 0.32 | < 75 | no binding | no binding (tested: 2 µg/mL) | – | – | – | – | – | –
LP20 (SR16983-R4-P1-B07) (VHH, not shown: small tags and cut ends, Llama VHH purified from E. coli periplasm) VHH: QLQLVESGGGLVQAGGSLRLSCTASGSTVRVTAGGWYRQTPGNERELVADIDNGGSTTYADSVKGRFTISRDNAKNAVDLQMNSLKPEDTAVYRCFVIAIPDSAPRPRAYWGQGTEVTVSS | 85.6 | 1.9 | 0.0007 | 380000 | no binding (tested: 2 µg/mL) | 0.3 | – | no binding | no binding (tested: 2 µg/mL) | – | – | > 90 | – | – | –
LP3 (SR16983-R2-P4-E09) (VHH, not shown: small tags and cut ends, Llama VHH purified from E. coli periplasm) VHH: QVQLVESGGGLVQPGGSLTLSCAASGTIESINDMGWYRQAPGKQRELVAAITSGGSTNYADSVKGRFTISRDNAKNTVYLQMNSLKPEDTAVYYCNAEVKRHYYYDSAGYRYWGQGTQVTVSS | 28.8 | 8.8 | 0.0016 | 180000 | no binding (tested: 2 µg/mL) | 0.29 | – | no binding | no binding (tested: 2 µg/mL) | – | – | – | – | – | –
LP19 (SR16983-R4-P1-B06) (VHH, not shown: small tags and cut ends, Llama VHH purified from E. coli periplasm) VHH: QLQLVESGGGEVQAGESLRLSCAASGSTFSINVFAWYRDYPGKQRELVAVIGRSGTPRYADSVKGRFTISRDNAKNTVYLQMNSLEPEDTAVYYCHLGDTWGQGTQVTVSS | – | 6.1 | 0.0025 | 410000 | no binding (tested: 2 µg/mL) | 0.31 | < 75 | – | no binding (tested: 2 µg/mL) | – | – | – | no binding | – | –
LP9 (SR16983-R3-P3-B05) (VHH, not shown: small tags and cut ends, Llama VHH purified from E. coli periplasm) VHH: EVQLVESGGGLVQAGGSLRLSCAASGRTFVGSYVMGWFRQAPGKEREFVAASSRSTGNTVYLDSVKGRFTVSRDDAKNTLYLQMNSLKTEDTAVYYCATRASINYNAATWPYWGQGTQVTVSS | 27.7 | 0.003 | 6.3e-07 | 210000 | no binding (tested: 2 µg/mL) | 0.33 | – | no binding | no binding (tested: 2 µg/mL) | – | – | > 90 | – | – | < 0.01
LP4 (SR16983-R3-P2-A06) (VHH, not shown: small tags and cut ends, Llama VHH purified from E. coli periplasm) VHH: QLQLVESGGGLVQAGGSLRLSCAASGSTFNFRIMGWYRQVPGKQRELVAVINSGGSADYTEDVKGRFTISRDDAKSTMYLQMNSLKPEDTAVYYCHAKKVEPTLFTTTYWGQGTQVTVSS | 33 | 4.4 | 0.0027 | 550000 | no binding (tested: 2 µg/mL) | 0.33 | – | no binding | no binding (tested: 2 µg/mL) | – | – | – | – | – | –

Now from value to binder:

APC plasma T1/2 (min; mean) [1] [min] | Kd [2] [nM] | koff [2] [s⁻¹] | kon [2] [M⁻¹ s⁻¹] | binding result (FXIa) | APC binding (nm) [3] [nm] | APC-mediated histone H3 cleavage, 500 nM nanobody [4] [% residual activity] | binding result [5] | binding result (FVIIa) | binding result [6] | binding result [7] | Protac-APTT clotting time, 300 nM nanobody [4] [%] | binding result [8] | R46/R41 cleavage ratio of PAR1 by APC [4] | Kd [9] [nM] | Binder
29.3 | 4.5 | 0.0011 | 230000 | no binding (tested: 2 µg/mL) | 0.29 | < 75 | – | no binding (tested: 2 µg/mL) | no binding | – | – | – | – | – | LP10 (SR16983-R3-P3-E06) (VHH, not shown: small tags and cut ends, Llama VHH purified from E. coli periplasm) VHH: QVQLVESGGGLVQAGGSLRLSCAASGTIESINDMGWYRQAPGKQRELVATVSSSGMTNYADSAKGRFTISRDNAKNTMYLQMNSLKPEDTAVYYCKAHISRSYYYDSLGYDYWGQGTQVTVSS
33.9 | 9.4 | 0.0041 | 440000 | no binding (tested: 2 µg/mL) | 0.34 | < 75 | – | no binding (tested: 2 µg/mL) | – | no binding | – | – | – | – | LP7 (SR16983-R3-P2-H08) (VHH, not shown: small tags and cut ends, Llama VHH purified from E. coli periplasm) VHH: EVQLVESGGGLVQAGGSLRLSCAASGTTFDMNSMGWYRQGPGFKRELVATISMGGDTNYADSVKGRFTISRANAKNTVYMQMNSLKPEDTAVYYCNAERIWPNRRTFWGQGTQVTVSS
36.4 | 16 | 0.0066 | 400000 | no binding (tested: 2 µg/mL) | 0.31 | – | – | no binding (tested: 2 µg/mL) | no binding | – | – | – | – | – | LP15 (SR16983-R3-P5-H05) (VHH, not shown: small tags and cut ends, Llama VHH purified from E. coli periplasm) VHH: QLQLVESGGGLVQAGGSLRLSCAASGTTFSFVYMGWYRQAPGNQRDLVARISSDGSTNYADSVKGRFTISGDNAKNTVYLQMNSLKPEDTARYYCFWNGHTNKWGQGTQVTVSS
– | 15 | 0.009 | 590000 | – | 0.32 | < 75 | – | – | – | – | – | – | – | – | LP1 (SR16983-R2-P3-D06) (VHH, not shown: small tags and cut ends, Llama VHH purified from E. coli periplasm) VHH: QLQLVESGGGLVQAGGSLRLSCAASGSTFPINVFAWYRQAPGEQRELGELVAFIGRSGTTNYGDSVKGRFTISRDNAKNTVYLQMDSLRPEDTAVYYCNLGDYWGQGTQVTVSS
16.1 | 4.5 | 0.0011 | 240000 | no binding (tested: 2 µg/mL) | 0.29 | – | – | no binding (tested: 2 µg/mL) | – | no binding | – | – | > 1 ratio | – | LP18 (SR16983-R4-P1-A11) (VHH, not shown: small tags and cut ends, Llama VHH purified from E. coli periplasm) VHH: QLQLVESGGGLVQPGGSLRLSCAASGFTFSTKWMYWVRQGPGKGLERVAAIDAGGTSTYYADSVKGRFTISRDNSENTVYLQMNSLESADTAVYYCARSEGGLFRGRGTQVTVSA
– | – | – | – | no binding (tested: 2 µg/mL) | – | – | – | no binding (tested: 2 µg/mL) | – | – | – | – | – | – | LP5 (SR16983-R3-P2-F04) (VHH, not shown: small tags and cut ends, Llama VHH purified from E. coli periplasm) VHH: QVQLVESGGGLVQHGGSLRLSCAVSGSIFTTATMAWYRQAPGKQRDWVAVITTGGSTRYADDVKGRFAISRDNAKNTVYLQMNNLKPEDTAVYYCNAATRLSSTNYWGQGTQVSVSS
25 | 2.1 | 0.00069 | 330000 | no binding (tested: 2 µg/mL) | 0.3 | – | no binding | no binding (tested: 2 µg/mL) | – | – | > 90 | – | > 1 ratio and ≤ 2.5 fold | – | LP11 (SR16983-R3-P3-F03) (VHH, not shown: small tags and cut ends, Llama VHH purified from E. coli periplasm; also made in CHO cells for the endothelial barrier assay) VHH: QLQLVESGGGLAQAGGSLRLSCAASGRTFVGSYVMGWFRQAPGKEREFVAASSRSTGNTVYLDSVKGRFTISRDDAKNTLFLQMNRLKPEDTAVYYCATRASVNYNYAAWPYWGQGTQVTVSS
